Laboratory results published in patent publication US20220370545A1, “INTEGRIN RECEPTOR ALPHA V BETA 3 AND ITS LIGAND INVOLVED IN CHRONIC ITCH” (North Carolina State University, priority 2019, published 2022).

B1: periostin: fasciclin extracellular matrix protein, endogenous ligand of integrin αvβ3; mouse recombinant used (protein)
chain: NSYYDKVLAHSRIRGRDQGPNVCALQQILGTKKKYFSSCKNWYQGAICGKKTTVLYECCPGYMRMEGMKGCPAVMPIDHVYGTLGIVGATTTQHYSDVSKLREEIEGKGSYTYFAPSNEAWENLDSDIRRGLENNVNVELLNALHSHMVNKRMLTKDLKHGMVIPSMYNNLGLFINHYPNGVVTVNCARVIHGNQIATNGVVHVIDRVLTQIGTSIQDFLEAEDDLSSFRAAAITSDLLESLGRDGHFTLFAPTNEAFEKLPRGVLERIMGDKVASEALMKYHILNTLQCSEAITGGAVFETMEGNTIEIGCEGDSISINGIKMVNKKDIVTKNGVIHLIDEVLIPDSAKQVIELAGKQQTTFTDLVAQLGLASSLKPDGEYTLLAPVNNAFSDDTLSMDQRLLKLILQNHILKVKVGLSDLYNGQILETIGGKQLRVFVYRTAICIENSCMVRGSKQGRNGAIHIFREIIQPAEKSLHDKLRQDKRFSIFLSLLEAADLKDLLTQPGDWTLFAPTNDAFKGMTSEERELLIGDKNALQNIILYHLTPGVYIGKGFEPGVTNILKTTQGSKIYLKGVNETLLVNELKSKESDIMTTNGVIHVVDKLLYPADIPVGNDQLLELLNKLIKYIQIKFVRGSTFKEIPMTVYRPAMTKIQIEGDPDFRLIKEGETVTEVIHGEPVIKKYTKIIDGVPVEITEKQTREERIITGPEIKYTRISTGGGETGETLQKFLQKEVSKVTKFIEGGDGHLFEDEEIKRLLQGDTPAKKIPANKRVQGPRRRSREGRSQ

What was measured:
TRPA1 = biological target: T1, TRPA1 (Mus musculus, UniProt Q8BLA8); test: AITC (mustard)-induced calcium response in DRG neurons (specificity control); format: cell-based; details: perfusion with 100 nM cilengitide
T1 construct: endogenous in cells; host or cells: primary mouse dorsal root ganglion neurons
T1 sequence (Q8BLA8 whole entry, the tested form may be a part): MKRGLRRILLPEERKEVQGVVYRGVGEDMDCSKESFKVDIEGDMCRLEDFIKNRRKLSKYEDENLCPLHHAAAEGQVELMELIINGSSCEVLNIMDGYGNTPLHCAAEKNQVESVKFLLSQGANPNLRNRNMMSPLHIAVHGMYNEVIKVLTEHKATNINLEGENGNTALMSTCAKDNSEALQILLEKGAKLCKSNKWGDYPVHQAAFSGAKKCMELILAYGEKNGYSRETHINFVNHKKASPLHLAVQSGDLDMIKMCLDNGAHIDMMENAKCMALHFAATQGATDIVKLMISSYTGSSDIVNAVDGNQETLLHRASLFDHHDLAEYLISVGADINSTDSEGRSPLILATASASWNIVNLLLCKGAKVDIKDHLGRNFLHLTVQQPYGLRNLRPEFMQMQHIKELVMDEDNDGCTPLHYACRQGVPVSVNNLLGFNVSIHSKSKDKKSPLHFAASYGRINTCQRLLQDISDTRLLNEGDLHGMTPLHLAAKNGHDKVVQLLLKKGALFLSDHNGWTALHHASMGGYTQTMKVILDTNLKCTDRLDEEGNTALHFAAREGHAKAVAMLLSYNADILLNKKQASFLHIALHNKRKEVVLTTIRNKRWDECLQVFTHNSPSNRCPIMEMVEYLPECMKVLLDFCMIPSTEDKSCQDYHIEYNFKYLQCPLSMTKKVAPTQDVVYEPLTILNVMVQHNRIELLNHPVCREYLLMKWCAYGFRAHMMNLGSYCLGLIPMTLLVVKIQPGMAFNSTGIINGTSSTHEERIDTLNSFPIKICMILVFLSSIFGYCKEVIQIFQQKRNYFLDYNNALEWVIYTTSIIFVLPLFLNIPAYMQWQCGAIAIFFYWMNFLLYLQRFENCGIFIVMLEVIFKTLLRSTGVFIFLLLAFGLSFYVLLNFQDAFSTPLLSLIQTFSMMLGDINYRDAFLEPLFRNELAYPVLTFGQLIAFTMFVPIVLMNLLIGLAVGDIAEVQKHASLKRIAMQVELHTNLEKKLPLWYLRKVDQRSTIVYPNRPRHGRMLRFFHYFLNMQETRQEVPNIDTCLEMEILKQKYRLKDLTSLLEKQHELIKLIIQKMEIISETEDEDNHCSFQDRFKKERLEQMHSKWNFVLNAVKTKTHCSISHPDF
Method: Before imaging, cells were incubated in 350 μL of complete media containing 1 μM Fura-2 AM (Enzo Life Sciences, Farmingdale, New York, United States of America) for 30 min at 37° C. with 5% CO2. During imaging, the cells were perfused with a buffer containing the following: 135 mM sodium chloride, 3.2 mM potassium chloride, 2.5 mM magnesium chloride, 2.8 mM calcium chloride, 667 μM monobasic sodium phosphate, 14.2 mM sodium bicarbonate, and 10.9 mM D-glucose (all from VWR International, Radnor, Pennsylvania, United States of America) with a pH between 7.00 and 7.40. The buffer and the holding plate were kept at 37° C. while imaging. Imaging data was collected on a TE200 inverted microscope using NIS Elements software (Nikon, Melville, New York, United States of America). Cells were exposed to 340 nm and 380 nm wavelengths for 100 ms and the A340/A380 ratio was calculated. Traces were analyzed using Excel and responses greater than 10% of the baseline were counted. Each data point in the scatter plots represented one coverslip.

[1] = system: histamine-dependent itch in mice; test: Histamine-induced itch in mice; format: in vivo, mouse; details: i.v. cilengitide 100 nM 10 minutes prior to histamine 100 μg/10 μl
Method: (§1) All behavioral experiments were conducted during the light cycle at ambient temperature (23° C.). Behavioral assessment of scratching behavior was conducted as described previously (Mishra et al., 2011). Briefly, mice were injected intradermal into the nape of the neck with periostin (R&D), histamine, and chloroquine (all Millipore-Sigma) as previously described (Shimada and LaMotte, 2008). Compounds were diluted in PBS and the same was used as a vehicle. […] Additionally, cilengitide and periostin were combined together (mix) and injected i.d. into the dorsal neck of mouse. Scratching behavior was recorded for 30 minutes and data was presented in bouts per 30 minutes for mice. […] For eye wipes assay, periostin and capsaicin were dropped on mouse cornea and counted wipes for 1-minute. […] For dog's study, periostin (25 μg/25 μl) was injected in the dorsal neck (s.c.) and behavior was recorded and quantified for 30 minutes as “duration of pruritus manifestation” (DPM), as described earlier (Paps et al., 2016). […] When different raters separately scored a single tape, the ratings indicated high interrater reliability (coefficient of correlation, r>0.95). This method of itch readout in NHP has been used and accepted (Ko and Naughton, 2000). The behavior was recorded for 30 minutes duration and number of scratches quantified. […]

[2] = system: non-histamine dependent (CQ) itch in mice; test: Chloroquine (CQ)-induced itch in mice; format: in vivo, mouse; details: i.v. cilengitide 100 nM 10 minutes prior to CQ 100 μg/10 μl
Method: as §1

mouse cornea = test: Eye wipes assay (corneal application); format: in vivo; details: wild-type mice, wiping measured for 1 minute
Method: as §1

dogs = test: Periostin injection in dogs, pruritus manifestations; format: in vivo, dog; details: mouse recombinant periostin 25 μg/100 μl intradermally, neck, within 15 minutes
monkeys = test: Periostin injection in monkeys, number of scratches; format: in vivo, monkey; details: mouse recombinant periostin 25 μg/100 μl subcutaneously, thigh, within 15 minutes
Method: as §1

[3] = system: Mouse bone marrow-derived mast cells; test: Mast cell degranulation (β-hexoseaminidase release); format: cell-based; details: increasing concentrations, 30 minutes challenge
Method: Mouse bone marrow-derived mast cells were cultured from femurs of C57B1/6J mice as described (Jensen et al., 2006). Degranulation was assessed by measuring β-hexoseaminidase release as described (Cruse et al., 2013) using mast cells sensitized with 100 ng/mL anti-DNP IgE (SPE7 clone) (Sigma Aldrich, St. Louis, Miss., United States of America) for 16 hours, before the cells were challenged for 30 minutes with the indicated stimulus.

BMMC mast cells = test: Calcium imaging on mast cells; format: cell-based, mouse; details: mast cells stimulated with periostin alone
Method: Changes in cytosolic Ca^2+ were assayed using ratiometric Fura-2 AM measurements as described (Cruse et al., 2013). Fluorescence was measured at two excitation wavelengths (340 and 380 nm) and an emission wavelength of 510 nm using a BioTek Neo2 multimode plate reader (BioTek, Winooski, Vt., United States of America). The ratio of fluorescence readings was calculated following subtraction of background fluorescence of cells not loaded with Fura-2 AM.

SST-positive DRG neurons = test: Whole-cell patch clamp recordings in SST-positive mouse DRG neurons; format: cell-based
Method: DRGs were removed aseptically from SOM-reporter mice (6-8 weeks) and incubated with collagenase (1.25 mg/ml)/dispase-II (2.4 units/ml) (both from Roche, Basel, Switzerland) at 37° C. for 90 min, then digested with 0.25% trypsin for 8 min at 37° C., followed by 0.25% trypsin inhibitor. Cells were mechanically dissociated with a flame polished Pasteur pipette in the presence of 0.05% DNAse I (Sigma, St. Louis, Miss., United States of America). DRG cells were plated on glass cover slips and grown in a neurobasal defined medium (with 2% B27 supplement, Invitrogen, Carlsbad, Calif., United States of America) with 5 μM AraC and 5% carbon dioxide at 36.5° C. DRG neurons were grown for 24 hours before use. Whole-cell patch clamp recordings were performed at room temperature using an Axopatch-700B amplifier (Axon Instruments, Foster City, Calif., United States of America) with a Digidata 1440B (Axon Instruments, Foster City, Calif., United States of America). Only SOM-positive neurons (<[…]) were recorded. […] Pipette resistance was 4-6 MΩ for whole-cell recording of periostin—induced inward currents, as previously recorded (Han et al., Neuron, 2018, PMID: 30033153)

| Molecule | AITC-induced calcium response (TRPA1) | histamine-induced itch (scratching bouts per 30 minutes) [1] | CQ-induced itch (scratching bouts per 30 minutes) [2] | eye-wiping response to ocular application (mouse cornea) | itch after periostin injection in dogs (dogs) | itch after periostin injection in monkeys (monkeys) | degranulation of anti-DNP IgE-sensitized mast cells [3] | calcium release in mast cells (BMMC mast cells) | inward current by periostin (SST-positive DRG neurons; periostin 1 μg/ml, pilot data) | average inward current by periostin (SST-positive DRG neurons; periostin 10 μg/ml, 8 neurons from 4 mice) [pA] |
| --- | --- | --- | --- | --- | --- | --- | --- | --- | --- | --- |
| CC(C)[C@H]1C(=O)N[C@@H](CCCN=C(N)N)C(=O)NCC(=O)N[C@@H](CC(=O)O)C(=O)N[C@H](Cc2ccccc2)C(=O)N1C [cilengitide, cyclo RGDf-n(Me)V] | did not reduce | inhibits | inhibits | – | – | – | – | – | – | – |
| B1 | – | – | – | No eye-wiping response | robust scratching | robust scratching | no degranulation | no periostin-dependent change in calcium release | weak inward currents | 58.4 |
